Earlier results in paper PMC5725453.

Molecular target: PI4KB (Homo sapiens) (UniProt Q9UBF8)
UniProt Q9UBF8, sequence (Q9UBF8 2-816): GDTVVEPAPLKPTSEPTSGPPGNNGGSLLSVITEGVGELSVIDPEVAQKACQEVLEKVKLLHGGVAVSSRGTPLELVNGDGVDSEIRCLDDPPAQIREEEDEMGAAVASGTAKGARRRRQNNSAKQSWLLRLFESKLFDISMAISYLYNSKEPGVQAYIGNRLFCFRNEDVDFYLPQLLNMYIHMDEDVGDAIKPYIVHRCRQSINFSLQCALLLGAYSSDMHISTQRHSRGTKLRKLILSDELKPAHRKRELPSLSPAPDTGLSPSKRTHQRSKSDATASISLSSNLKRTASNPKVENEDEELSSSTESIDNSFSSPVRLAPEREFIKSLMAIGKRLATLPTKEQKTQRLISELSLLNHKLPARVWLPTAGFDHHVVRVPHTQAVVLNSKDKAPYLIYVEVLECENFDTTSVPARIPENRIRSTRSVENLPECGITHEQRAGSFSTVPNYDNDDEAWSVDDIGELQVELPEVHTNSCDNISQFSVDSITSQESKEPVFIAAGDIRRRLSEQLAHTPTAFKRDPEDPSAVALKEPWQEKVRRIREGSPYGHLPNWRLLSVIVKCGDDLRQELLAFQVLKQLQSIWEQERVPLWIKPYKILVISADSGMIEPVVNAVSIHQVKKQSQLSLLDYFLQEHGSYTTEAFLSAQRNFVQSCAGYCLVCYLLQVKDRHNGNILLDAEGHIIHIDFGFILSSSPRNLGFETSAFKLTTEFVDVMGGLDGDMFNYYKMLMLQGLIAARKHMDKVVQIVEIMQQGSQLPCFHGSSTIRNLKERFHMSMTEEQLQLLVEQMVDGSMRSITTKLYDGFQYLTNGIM

Substance: ACBD3 (from UniProt Q9H3P7)
- Kd: 320 nM
